According to article PMC5818060, “A CK1 FRET biosensor reveals that DDX3X is an essential activator of CK1ε” (Journal of Cell Science, 2018):
Each block holds one binder with its values, some of them ahead of it. Ends that are not written are not given here. * marks the point of attachment. Biotin = O=C1N[C@H]2[C@H](CS[C@H]2CCCCC(=O)*)N1

Key:
Details in all cases: both partners purified
His-DDX3X^414-582 [1] = target: T1, His-DDX3X^414-582 (human, UniProt O00571 414-582); assay: ELISA; His-DDX3X^414-582 coated on MaxiSorp plates (0.01 µg/µl, 100 mM sodium carbonate pH 9.6, 4°C overnight); biotinylated peptides 1 µg/well, 2.5 h at room temperature; detection with HRP-streptavidin
T1 construct: DEAD box RNA helicase 3 X-linked (DDX3X), human, UniProt O00571, C-terminal helicase domain, aa 414-582; Named without the His tag in the BLItz methods; also called C-terminal helicase domain of DDX3X; source: dialyzed in 50 mM HEPES pH 8 for ELISA and FTS
T1 sequence (O00571 414-582): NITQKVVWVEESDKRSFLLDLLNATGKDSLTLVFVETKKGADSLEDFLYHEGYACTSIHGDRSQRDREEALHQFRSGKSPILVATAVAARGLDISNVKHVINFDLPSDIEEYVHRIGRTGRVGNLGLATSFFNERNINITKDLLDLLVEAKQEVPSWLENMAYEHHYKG

His-DDX3X^414-582 [2] = target: T1, His-DDX3X^414-582; assay: fluorescence thermal shift (FTS) assay; 10 µM His-DDX3X^414-582, 20 µM peptide, 50 mM HEPES pH 8, 10x SYPRO-Orange; change of melting temperature
Flag-DDX3X = target: T2, Flag-DDX3X (human, UniProt O00571 1-662); assay: pull-down; purified Flag-DDX3X proteins, incubated with total RNA where indicated, subjected to bead-coupled HA-CK1ε; Western blot
T2 construct: DEAD box RNA helicase 3 X-linked (DDX3X), human, UniProt O00571, full length; pCS-based vector with N-terminal Flag tag; purification as in Cruciat et al., 2013; also called wild-type DDX3X; DDX3X WT; source: HEK293T, transfected, purified on Flag beads (high-salt wash, eluted with Flag peptide); not shown: Flag, N-terminal, kept
T2 sequence (O00571 whole entry): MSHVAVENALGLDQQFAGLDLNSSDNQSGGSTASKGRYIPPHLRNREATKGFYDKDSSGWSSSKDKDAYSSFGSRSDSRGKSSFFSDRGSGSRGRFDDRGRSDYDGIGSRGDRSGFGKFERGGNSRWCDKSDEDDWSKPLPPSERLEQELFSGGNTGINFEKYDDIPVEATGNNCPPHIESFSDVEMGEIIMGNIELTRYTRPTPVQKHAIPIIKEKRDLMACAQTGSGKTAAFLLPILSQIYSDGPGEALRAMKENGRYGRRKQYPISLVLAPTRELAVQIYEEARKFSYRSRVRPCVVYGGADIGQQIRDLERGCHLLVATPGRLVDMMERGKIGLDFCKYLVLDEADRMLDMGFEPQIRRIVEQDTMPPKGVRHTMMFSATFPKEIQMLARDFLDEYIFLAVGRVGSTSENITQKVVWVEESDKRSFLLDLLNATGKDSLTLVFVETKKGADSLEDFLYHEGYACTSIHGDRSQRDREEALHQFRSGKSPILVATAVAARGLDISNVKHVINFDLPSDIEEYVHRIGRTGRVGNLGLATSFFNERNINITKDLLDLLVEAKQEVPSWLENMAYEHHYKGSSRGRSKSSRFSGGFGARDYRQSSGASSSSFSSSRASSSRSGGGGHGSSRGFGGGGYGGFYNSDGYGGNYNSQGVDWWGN

His-DDX3X^414-582 [3] = target: T1, His-DDX3X^414-582; assay: fluorescence thermal shift (FTS) assay; FTS with varying concentrations of peptide; melting temperatures fitted to single site or simple cooperative ligand binding, preferred model chosen

binding result (His-DDX3X^414-582 [1]): binds
B1: CK1δ-derived peptide δ-231 (peptide)
peptide: Biotin-SGSGKKMSTPIEVLCKGYP
notes: four amino acid spacer between biotin and the peptide; casein kinase 1 delta (CK1δ), human, UniProt P48730; source: synthetic peptide (peptide library), pre-dissolved in DMSO; not shown: biotin, N-terminal, kept

binding result (His-DDX3X^414-582 [1]): binds
B2: CK1ε-derived peptide ε-241 (peptide)
peptide: Biotin-SGSGCKGYPSEFSTYLNFC
modifications: cysteine pairing not given here
notes: four amino acid spacer between biotin and the peptide; casein kinase 1 epsilon (CK1ε), human, UniProt P49674; source: synthetic peptide (peptide library), pre-dissolved in DMSO; not shown: biotin, N-terminal, kept

binding result (His-DDX3X^414-582 [1]): binds
B3: CK1δ-derived peptide δ-141 (peptide)
peptide: Biotin-SGSGKGNLVYIIDFGLAKK
notes: as for B1

B4: CK1ε-derived peptide ε-41 (peptide)
peptide: Biotin-SGSGCVKTKHPQLHIESKF
notes: as for B2
increase of the melting temperature (Tm) of His-DDX3X^414-582 (His-DDX3X^414-582 [2]): 6.3 °C

binding result (Flag-DDX3X): binds
B5: HA-CK1ε (enzyme, human, UniProt P49674 1-416, looked up)
chain: MELRVGNKYRLGRKIGSGSFGDIYLGANIASGEEVAIKLECVKTKHPQLHIESKFYKMMQGGVGIPSIKWCGAEGDYNVMVMELLGPSLEDLFNFCSRKFSLKTVLLLADQMISRIEYIHSKNFIHRDVKPDNFLMGLGKKGNLVYIIDFGLAKKYRDARTHQHIPYRENKNLTGTARYASINTHLGIEQSRRDDLESLGYVLMYFNLGSLPWQGLKAATKRQKYERISEKKMSTPIEVLCKGYPSEFSTYLNFCRSLRFDDKPDYSYLRQLFRNLFHRQGFSYDYVFDWNMLKFGAARNPEDVDRERREHEREERMGQLRGSATRALPPGPPTGATANRLRSAAEPVASTPASRIQPAGNTSPRAISRVDRERKVSMRLHRGAPANVSSSDLTGRQEVSRIPASQTSVPFDHLGK
notes: casein kinase 1 epsilon (CK1ε), human, UniProt P49674; The methods name a pCS-based vector with N-terminal HA tag for human cell culture work; also called bead-coupled HA-CK1ε; casein kinase 1 epsilon; source: bead-coupled; not shown: HA, N-terminal, kept

binding result (His-DDX3X^414-582 [1]): binds
B6: CK1δ-derived peptide δ-31 (peptide)
peptide: Biotin-SGSGAGEEVAIKLECVKTK
notes: as for B1

binding result (His-DDX3X^414-582 [1]): binds
B7: CK1ε-derived peptide ε-61 (peptide)
peptide: Biotin-SGSGGGVGIPSIKWCGAEG
notes: as for B2

binding result (His-DDX3X^414-582 [1]): binds
B8: CK1δ-derived peptide δ-91 (peptide)
peptide: Biotin-SGSGDLFNFCSRKFSLKTV
notes: as for B1

Kd (His-DDX3X^414-582 [3]): 15.6 µM
B9: CK1δ-derived peptide δ-1 (peptide)
peptide: Biotin-SGSGMELRVGNRYRLGRKI
notes: four amino acid spacer between biotin and the peptide; casein kinase 1 delta (CK1δ), human, UniProt P48730; also called P1; source: synthetic peptide (peptide library), pre-dissolved in DMSO; not shown: biotin, N-terminal, kept
increase of the melting temperature (Tm) of His-DDX3X^414-582 (His-DDX3X^414-582 [2]): 3.5 °C

B10: CK1ε-derived peptide ε-1 (peptide)
peptide: Biotin-SGSGMELRVGNKYRLGRKI
notes: four amino acid spacer between biotin and the peptide; casein kinase 1 epsilon (CK1ε), human, UniProt P49674; differs from δ-1 only by K for R in the middle of the peptide; source: synthetic peptide (peptide library), pre-dissolved in DMSO; not shown: biotin, N-terminal, kept
increase of the melting temperature (Tm) of His-DDX3X^414-582 (His-DDX3X^414-582 [2]): 4.6 °C
